Numbering of substitutions follows the chain as printed. Blank lines part the entries; values can stand above or below the binder they belong to.
Target: T1, Rrm3p-Myc (S. cerevisiae, UniProt P38766 1-723)
T1 construct: Rrm3p DNA helicase, S. cerevisiae; source: expressed from a low copy plasmid in the POL30-0 and mutant pol30 yeast strains, in lysate
T1 sequence (looked up): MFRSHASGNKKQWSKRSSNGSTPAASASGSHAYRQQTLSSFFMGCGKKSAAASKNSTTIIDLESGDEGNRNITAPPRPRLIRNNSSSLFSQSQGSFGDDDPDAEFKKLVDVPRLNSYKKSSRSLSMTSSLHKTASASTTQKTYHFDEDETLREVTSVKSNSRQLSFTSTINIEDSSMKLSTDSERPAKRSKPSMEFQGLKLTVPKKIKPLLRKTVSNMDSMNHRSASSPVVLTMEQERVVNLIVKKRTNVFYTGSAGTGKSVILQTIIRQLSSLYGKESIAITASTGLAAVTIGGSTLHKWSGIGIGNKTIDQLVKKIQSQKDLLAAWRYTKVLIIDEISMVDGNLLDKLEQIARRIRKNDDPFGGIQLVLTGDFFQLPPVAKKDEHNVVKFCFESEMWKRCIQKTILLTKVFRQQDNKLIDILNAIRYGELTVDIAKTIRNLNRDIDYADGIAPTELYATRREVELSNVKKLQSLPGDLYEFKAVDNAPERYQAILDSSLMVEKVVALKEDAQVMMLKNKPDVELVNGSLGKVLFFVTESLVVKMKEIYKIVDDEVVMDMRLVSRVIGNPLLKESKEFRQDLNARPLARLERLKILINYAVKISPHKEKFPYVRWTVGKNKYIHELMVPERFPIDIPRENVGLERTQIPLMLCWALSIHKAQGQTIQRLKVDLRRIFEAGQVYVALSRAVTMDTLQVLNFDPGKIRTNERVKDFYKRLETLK
Assay: co-IP; Cac1p-FLAG and Rrm3p-Myc from low copy plasmids in the POL30-0 and mutant pol30 strains; α-FLAG or α-Myc precipitation from lysate in IP buffer (150 mM NaCl, 50 mM Tris pH 7.5, 2 mM EDTA), washes with 0.2% Triton X100 + 0.01% SDS, elution with FLAG or Myc peptide, blot with α-PCNA
Conditions: partners not purified

fold reduction of co-precipitated Pol30p against wild-type Pol30p: 5 fold
B1: pol30-6 mutant Pol30p of the pol30-6 strain (natural protein, S. cerevisiae, UniProt P15873 1-258, looked up)
chain: MLEAKFEEASLFKRIIDGFKDCVQLVNFQCKEDGIIAQAVAASRVLLVSLEIGVEAFQEYRCDHPVTLGMDLTSLSKILRCGNNTDTLTLIADNTPDSIILLFEDTKKDRIAEYSLKLMDIDADFLKIEELQYDSTLSLPSSEFSKIVRDLSQLSDSINIMITKETIKFVADGDIGSGSVIIKPFVDMEHPETSIKLEMDQPVDLTFGAKYLLDIIKGSSLSDRVGIRLSSEAPALFQFDLKSGFLQFFLAPKFNDEE
notes: Pol30p (PCNA), S. cerevisiae, double alanine substitutions at Asp 41 and Asp 42; detected with α-PCNA; also called Pol30-6p; source: expressed in the pol30-6 mutant yeast strain, in lysate

fold reduction of co-precipitated Pol30p against wild-type Pol30p: < 2 fold
B2: pol30-8 mutant Pol30p of the pol30-8 strain (natural protein, S. cerevisiae, UniProt P15873 1-258, looked up)
chain: B1 chain with A41D, A42D, R61A, D63A
notes: Pol30p (PCNA), S. cerevisiae, double alanine substitutions at Arg 61 and Asp 63; detected with α-PCNA; also called Pol30-8p; source: expressed in the pol30-8 mutant yeast strain, in lysate

From article PMC10585736, “Analyses of POL30 (PCNA) reveal positional effects in transient repression or bi-modal active/silent state at the sub-telomeres of S. cerevisiae” (Epigenetics & Chromatin, 2023)
